US9084745B2, “Modulation of the Vps10p-domain for the treatment of cardiovascular disease” (H. Lundback A/S, priority 2008, dated 2015)
pKd: −log10 of the molar value.

Target: T1, recombinant human sortilin (Homo sapiens, UniProt Q99523)
T1 sequence (Q99523 78-755 limits assumed): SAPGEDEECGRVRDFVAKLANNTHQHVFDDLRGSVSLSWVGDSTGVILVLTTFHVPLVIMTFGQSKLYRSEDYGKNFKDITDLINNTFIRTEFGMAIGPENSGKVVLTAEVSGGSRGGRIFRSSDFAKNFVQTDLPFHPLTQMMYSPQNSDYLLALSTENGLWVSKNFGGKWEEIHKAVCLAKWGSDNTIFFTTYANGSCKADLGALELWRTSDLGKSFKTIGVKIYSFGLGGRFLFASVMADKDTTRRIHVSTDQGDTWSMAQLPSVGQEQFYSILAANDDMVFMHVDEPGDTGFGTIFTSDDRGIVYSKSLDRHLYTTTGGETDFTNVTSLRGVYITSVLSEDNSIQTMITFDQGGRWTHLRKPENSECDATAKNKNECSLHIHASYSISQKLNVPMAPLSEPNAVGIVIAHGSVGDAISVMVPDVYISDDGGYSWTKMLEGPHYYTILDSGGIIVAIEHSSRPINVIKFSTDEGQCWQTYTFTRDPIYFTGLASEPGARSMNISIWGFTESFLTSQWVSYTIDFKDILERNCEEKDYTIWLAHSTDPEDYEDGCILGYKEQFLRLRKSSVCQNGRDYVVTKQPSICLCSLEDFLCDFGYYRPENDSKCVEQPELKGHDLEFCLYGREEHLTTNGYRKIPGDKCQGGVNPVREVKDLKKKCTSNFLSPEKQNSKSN
Experiment: Surface plasmon resonance analysis of ApoB binding to immobilized sortilin
Settings: ApoB 10, 20, 50 nM, on and off rates recorded, displayed experiment
Procedure: FIG. 5b: Characterization of ApoB binding to recombinant human sortilin (30). Sortilin was immobilized on a BIAcore CM5 sensorchip at a density of […]. A) After baseline calibration in running buffer (10 mM Hepes, 150 mM NaCl, 1 mM EGTA, 1.5 mM CaCl2, 0.005% P20, pH 7.4) 10 μg/ml rabbit anti-sortilin IgG (12) or running buffer alone was applied to the chip. At t=700 sec the response units obtained in the presence of anti-sortilin IgG was arbitrarily set at 100 and 50 nM ApoB was applied to the flow cell pre-incubated with antibody or with buffer alone. Association of ApoB binding was measured until 1200 sec, after which the solute was changed to buffer to allow dissociation. […]
Determination of direct binding of ligand to immobilized protein can be performed by e.g. surface plasmon resonance analysis (Biacore, Sweden) using CaHBS as standard running buffer (10 mM HEPES, pH 7.4, 140 mM NaCl, 2 mM CaCl2, 1 mM EGTA, and 0.005% Tween-20). […] In another approach, inhibition of an established ligand can be monitored in the absence or presence of putative inhibitors. […] The data collected are analysed by fitting of sensorgrams for affinity estimations and inhibitory potential using the Biaevaluation version 3.1 program. We evaluated the binding properties of ApoB to sortilin (FIG. 5b). […]

ApoB: apolipoprotein B, the part of LDL that binds to the LDL receptor; tested as sortilin ligand
pKd: 9.40
